Experiment: soluble on expression in E. coli; label from the status in PepcDB or PDB records

Question: Which “soluble on expression in E. coli” value does the source give for “MVILLQFYKEENFKKTEIGEIPEDWEVRELKDILEVIRNGLTAKQNKDKIGYPITRIETISDSKIDITKLGYVEDIKQEDIAKYRLIIGDILFSHINSEEHIGKVAIYEGKPEFLLHGMNLLLLRPNKNKIEPYYLLYLLRHFKQKNIFKYIAKRAVNQSSINQTQLKHLKIPLPPLEEQKQIAKILSDFDNLIGTINKQIEVLNKAKKGMMKKLFTKGVFEHKSFKKSEIGEIPEDWEVVELGNEKYFKIIMGQSPPSSSYNKEGEGVPFLQGKAEFGNIYPNPVLYTNKPLKVVDDEDILISVRAPVGDVNIAPFKLCIGRGLAGIKSNKEKVDNFFVFYYLSYIKPKIEYLGGGAVFKAITKKDLESIKIPLPPLEEQKAIAKRLKAIDDLIEIKRKEKEQIEKAKKKIMNLLLTGKIRVKT” here?
Answer: The value was “soluble”.

Question: For “MVIVINYKTYNESIGNRGLEIAKIAEKVSEESGITIGVAPQFVDLRMIVENVNIPVYAQHIDNINPGSHTGHILAEAIKDCGCKGTLINHSEKRMLLADIEAVINKCKNLGLETIVCTNNINTSKAVAALSPDCIAVEPPELIGTGIPVSKANPEVVEGTVRAVKEINKDVKVLCGAGISKGEDVKAALDLGAEGVLLASGVVKAKNVEEAIRELIKFI”, which “soluble on expression in E. coli” value is on record?
Answer: The value was “soluble”.

Question: Which “soluble on expression in E. coli” value does the source give for “MVKAQLQKLIEQVATEHDLPERVVERALKNAIITAIRKEKKIRDELEVEFTDEGIKVYVVRRKGNKKFKFPLDISPEDLNRLAAYAAKEEFYKELERAEQERGYLEFKELEGEIVYGIVRKVLENGDVIVDLGRIDAILPKREQLPTDNFKTGDKVKALLLEVRKRRGEPVLILSRTHPNFLRKLLEQEVPEIKEGLVEIKAVARIPGERAKVAVEAKEMKMDPVGIVVGLKGMRIQKVSEELGGEKIDVIRWSDDIAELIKRALAPAHPEKIKLFPYEKRAEVAVPEEELSLAIGKKGINVKLASKLTGWHIDVLSTKDFEKLEELRKKEDEGQTS” here?
Answer: Its value is “soluble”.

Question: With “MVKFIESELILLKKEVDEMWTLVYNQLDRAGEAVMTLDKELAQQVMVRERRVNAFELKIDSDIEDIIALYNPVAIDLRFVLAMLKINTNLERLGDFAEGIARFVIRCKEPVLDADLLARLRLGEMQAEVLSMLELAKRALNEENIEMATAVFGKDNLLDDINAEATGILADYIREHPETAHTCVDLVGVFRKLERSGDHITNIAEEIVFFIDAKVLKHSGKVDENYPKS” as the sequence, how does the “soluble on expression in E. coli” value read?
Answer: The value was “not soluble”.

Question: With “MVKKLYIKTNGCQMNEYDSSKMAEVLYASHGLVKTDQVEDADVILLNTCSIREKAQEKVFSQLGQWREYKAKNPHVLIGVGGCVASQEGSDIIKRAPFVDIVFGPQTLHRLPALLNERLEKNKSVVDISFPEIEKFDHLPAPRAEGPTAFVSIMEGCSKYCSFCVVPYTRGEEISRPFDDVLAECYQLASQGVREINLLGQNVNDYRGIMDNGDIADLALLIHYIAAIDGIGRIRFTTSHPLAFSENLINAYAEVPELANHLHLPVQSGSDRILSLMKRGYTALEFKSKIRKLRKIRPDIRLSTDIIVGFPGETDKDFQDTMDLVHEIGFDTSFSFIYSPRPGTPAANLPDDTPMEIKKQRLQILQNRLLMNAARYSESMIGSKQKILVTGFSKKSSQQLSGRTECNRVVNFDGPPHLIGQFIDVQISDALPNSLRGRLLEKEMQPALEHHHHHH” as the sequence, how does the “soluble on expression in E. coli” value read?
Answer: The value was “soluble”.

Question: With “MVKSIENVKLTKGLFYNSQKKGNDVILALDIDRLLAPYYEAANLPPKKRSYGGWEEREIRGHSLGHWLSAAAAMYETTGDKALLERIDRAVQELATIQDDVGYVGGVKRAHFDEMFSGEFQVGHFNIAGTWVPWYNLHKLFAGLIDVHQLTGHSLALTVVTKLADWAKKGTDQLTDDQFQRMLICEHGGMNEAMADLYTLTGHKDYLQLAIRFCHWAVLEPLANGIDELEGKHANTQIPKVIGAAKLFEITGDDTYRAIAEFFWRQVTNDRSYIIGGNSNSEHFGPANKETLGVETAETCNTYNMLKLTEHLFRWNRSSQLMDYYEKALYNHILASQDPDSGMKTYFVSLQPGHFKVYSSLEESFWCCFGTGLENPARYTRTIYDRDDRHIYVNLFMASEIHLKDLQVQIRQETNFPETDRTKLTFVKADGVSIKLHIRVPEWVAGPVTARINGKETFSESGADYLTIEREWQKGDEIEVHLPMELRIYEAKDDSHKVGIMYGPIVLAGTFGKDHFPLEHHHHHH” as the sequence, how does the “soluble on expression in E. coli” value read?
Answer: The value was “not soluble”.

Question: Which “soluble on expression in E. coli” value does the source give for “MVKSVLCFGDSLTWGSNAETGGRHSHDDLWPSVLQKALGSDVHVIHEGLGGRTTAYDDHTGDCDRNGARLLPTLLHSHAPLDMVIIMLGTNDMKPAIHGSAIVAMKGVERLVKLTRNHVWQVSDWEAPDVLIVAPPQLCETANPFMGAIFRDAIDESAMLASVYRDLADELDCGFFDAGSVARTTPVDGVHLDAENTRAIGRGLEPVVRMMLGL” here?
Answer: Its value is “soluble”.

Question: For “MVKTAVLMATYNGEIFISEQLDSIRQQTLKPDYVLLRDDCSTDETVNVVNNYIAKHELEGWKIVKNDKNLGWRLNFRQLLIDVLAYEVDYVFFSDQDDIWYLDKNERQFAIMSDKPQIEVLSADVDIKTMSTEASVPHFLTFSSSDRISQYPKVYDYQTFRPGWTIAMKRDFAQAIADNWTFGANISHDNLIETTASIIGNGYNLNESVGVHIRYGGNASGNSKFVLNWKSPKTQHITGLKTFVDFYETMQKVVNKYQNDVALNQRLAFEKERLEASKLSLIHNSAFVIKNWRLYNSNSGRMRDLLFAFKKLEHHHHHH”, which “soluble on expression in E. coli” value is on record?
Answer: The value was “soluble”.

Question: With “MVKVYGSTVDNESRCTHYQTPLDIIAIKFKCCNKYYPCYKCHNEHESHKIQRWQANEFHEKAILCGVCNHEMTINDYMMIEACPKCDAHFNNRCKYHYHLYFEILEHHHHHH” as the sequence, how does the “soluble on expression in E. coli” value read?
Answer: Its value is “soluble”.

Question: With “MVKWQATLSTTEPYNYIGIQNVRQGNRNTEVLEAILVENALPLDLTGCEVFFESVIDNKYPIQRAAKIVNAKKGIIQYTFDEYSMQSLHRQEAYFSIHKGDNLIGSTQNFSYFVVNAASKTEGEMGSYWQSIEDLIADMTAFINENKGDFTAWMNARKEEFEKWRKNQQDTFEAWRNGQETDYLKWFESIKDILKTIDPGGTMLAELMDARVDIQGVRHNSLSERLLADMNYLYHRLEERLYTIKYGNVNTLEILEDDSFSKNHEVEVLGTVNHPIEEGALIIATVDDSKQNVFTIEGVDNG” as the sequence, how does the “soluble on expression in E. coli” value read?
Answer: Its value is “not soluble”.

Question: Which “soluble on expression in E. coli” value does the source give for “MVLGLASFPESLSSQSETATQPRRPSVKWDLGSDYRKGTEETTASGSNFRRERLDSQPDLGLHVQPQIYFLRPRSPLPKLLFSLMNTNDANVKKLLPKSHLSRVIIRDNLNAQRICEMEMKASDKTKRKMSYLYDHLKKKFMMDQLRKMIRWRRDSQSTQDYLDKERV” here?
Answer: Its value is “not soluble”.

Question: Which “soluble on expression in E. coli” value does the source give for “MVLLSFDIEEFDVPLEQGYKDFPSEEQLRISRQGTEAILHILRKKGVRSTFFSTVTFWESLPEDLRKGIYTDGHELASHGVFHSSFSKEHLAESRQKLASLWDGTDVCGFRMPRMMPVGDAEIAEAGYLYNSSLNPTCIPGRYNHLSAPRLPYFDKYGVLQMPSSVTPLLRFPLFWLSLHHLPLRLYIRMIRHTVRRDNYLNLYFHPWEFAEISCLPDCKLSYTVTHNSGEKMCRRLEAVIDTLLADGCSFGTFSDYYRFQKQG” here?
Answer: Its value is “not soluble”.

Question: Which “soluble on expression in E. coli” value does the source give for “MVLVVGSGAGGATLARELAIRGIDVTVIERGPCVKDSDAFLCYDEAPDVDILRTSCAGGSTLVAAGNAVRVLENTLKDYGVDITEDLHAIEAELRVRELPDTHTGRGTALIMDAAESLGLGVKKMPKFIDPDKCRPCGKCSFGCPRAAKWSARRFLDEAVEHGAVLIEETEAKNIIVRNGSVSGLRTSRGDFHDETVVLAAGAIETPRILMRAGIDAGNGLFMDTFVTVGGILEGVGFCDEVQMNALIELDGVILSPHFSTLLFPEDDRRNVLGIMVKIADERSGRVEADRIVKHHTVRDISLLSGGAAIAGSILSRAGVGAGTLRSTRPRGAHPGGTASLGEVVDENLETSIEGLFVADASVLPAAPGAPPILTIMALARRLARHIVSVLLEHHHHHH” here?
Answer: Its value is “not soluble”.

Question: For “MVMETESKFHVLAVDDSLFDRKMIERLLQKSSCQVTTVDSGSKALEFLGLRVDDNDPNALSTSPQIHQEVEINLIITDYCMPGMTGYDLLKKVKESAAFRSIPVVIMSSENVPARISRCLEEGAEEFFLKPVKLADLTKLKPHMMKTKLKKESEKPVAIEEIVVSKPEIEEEEEESSVIEILPLHQEIESEQLEPMLSSNKRKAMEEVVSTDRSRPKYNDITTSV”, which “soluble on expression in E. coli” value is on record?
Answer: Its value is “not soluble”.

Question: With “MVMIISTMEPQVSNGPTSNTSNGPSSNNRNCPSPMQTGATTDDSKTNLIVNYLPQNMTQEEFRSLFGSIGEIESCKLVRDKITGQSLGYGFVNYIDPKDAEKAINTLNGLRLQTKTIKVSYARPSSASIRDANLYVSGLPKTMTQKELEQLFSQYGRIITSRILVGQVTGVSRGVGFIRFDKRIEAEEAIKGLNGQKPSGATEPITVKFANNPSQKSSQALLSQLYQSPNRRYPGPLHHQAQRFRLDNLLNMAYGVKRFSPITIDGMTSLVGMNIPGHTGTGWCIFVYNLSPDSDESVLWQLFGPFGAVNNVKVIRDFNTNKCKGFGFVTMTNYDEAAMAITSLNGYRLGDRVLQVSFKTNKAHKS” as the sequence, how does the “soluble on expression in E. coli” value read?
Answer: The value was “soluble”.

Question: For “MVNAIRTPDQRFSNLDQYPFSPNYLDDLPGYPGLRAHYLDEGNSDAEDVFLCLHGEPTWSYLYRKMIPVFAESGARVIAPDFFGFGKSDKPVDEEDYTFEFHRNFLLALIERLDLRNITLVVQDWGGFLGLTLPMADPSRFKRLIIMNACLMTDPVTQPAFSAFVTQPADGFTAYKYDLVTPSDLRLDQFMKRWAPTLTEAEASAYAAPFPDTSYQAGVRKFPKMVAQRDQACIDISTEAISFWQNDWNGQTFMAIGMKDKLLGPDVMYPMKALINGCPEPLEIADAGHFVQEFGEQVAREALKHFAETE”, which “soluble on expression in E. coli” value is on record?
Answer: Its value is “soluble”.

Question: Which “soluble on expression in E. coli” value does the source give for “MVNFVAKDIYTKDSIQRGGQDVIIEKHEIQIDQITSGKVNIFTFYRNRKQIDDHFLRLQEPSLTANYFFHFHFDAESLHLLQKEFPSVYPYDGSETIHDWTEKMKAELQHQIQTGKWNKRVRIGNRILDVVFTWCDEDIVE” here?
Answer: The value was “not soluble”.

Question: Which “soluble on expression in E. coli” value does the source give for “MVNSKVLNTLEYQQVKQQLAPYLVSATGQQALNELHPMTSVADIQRALDETNDGAEVYRLKGGIPVARLADIKPHMKRLAIGATLNGSELGQVGRVLRTTRAITRFFAELLEDAPELEHHHHHH” here?
Answer: The value was “not soluble”.

Question: With “MVNTIGFDREKYIEMQSQHIRERREALGGKLYLEMGGKLFDDMHASRVLPGFTPDNKIAMLDRIKDEVEILVCINAKDLERHKIRADLGISYEEDVLRLVDVFRDRGFLVEHVVLTQLENDNRLALAFIERLQRLGIKVSRHRVIPGYPTDMDRIVSDEGFGLNEYAETTRDLVVVTAPGPGSGKLATCLSQVYHEHKRGVAAGYAKFETFPIWNLPLEHPVNLAYEAATVDLNDANVIDHFHLAAYGEQTVNYNRDVEAFPLLKTLLERLMGESPYQSPTDMGVNMAGNCISDDAACRHASEQEIIRRYFKALVEEARTGKDSTQSDRAAVVMAKAGIKASQRVVVEPARQVEERTSLPGCAIELVDGSIITGATSDLLGCSSSMLLNALKHLAGIDDAIHLLSPESIEPIQTLKTVHLGSSNPRLHTDEVLIALSVSAATDSNAQKALDQLKNLRGCDVHTTTILGSVDEGIFRNLGVLVTSDPKFQKNKLYQKR” as the sequence, how does the “soluble on expression in E. coli” value read?
Answer: Its value is “not soluble”.

Question: With “MVPPTINTGKNITTERAVLTLNGLQIKLHKVVGESRDDIVAKMKDLAMDDHKFPRLPGPNPVSIERKDFEKLKQNKYVVSEKTDGIRFMMFFTRVFGFKVCTIIDRAMTVYLLPFKNIPRVLFQGSIFDGELCVDIVEKKFAFVLFDAVVVSGVTVSQMDLASRFFAMKRSLKEFKNVPEDPAILRYKEWIPLEHPTIIKDHLKKANAIYHTDGLIIMSVDEPVIYGRNFNLFKLKPGTHHTIDFIIMSEDGTIGIFDPNLRKNVPVGKLDGYYNKGSIVECGFADGTWKYIQGRSDKNQANDRLTYEKTLLNIEENITIDELLDLFKWE” as the sequence, how does the “soluble on expression in E. coli” value read?
Answer: The value was “soluble”.
